From patent publication US9127073B2, “Rock2 and Rock3, two new gain-of-function variants of the cytokinin receptors AHK2 and AHK3” (Freie Universitat Berlin, priority 2009, dated 2015) come the findings set out here.

Assay [1] has as its system Arabidopsis thaliana Columbia (Col-0). In words: Vegetative growth and fresh weight of mutant alleles in wild-type background. Type of assay: in vivo. Particulars: for vegetative growth of wild-type plants: mutant allele in Col-0 background, compared to wild type. The method, then:
(§1) The Columbia (Col-0) ecotype of Arabidopsis thaliana was used as the wild type. Plants were grown in the greenhouse on soil or under sterile conditions in Petri dishes containing ATS-medium (Estelle, M. A., and Somerville, C. (1986). Auxin-resistant mutants of Arabidopsis thaliana with an altered morphology. Mol. Gen. Genet. 206, 200-206). All plants were grown at 22° C. under long-day conditions (16 h light/8 h dark).
In order to analyze the consequences of the rock2 and rock3 mutations in wild type, the rock2 and rock3 suppressor mutants in 35S:CKX1 background were crossed to wild-type Columbia. […] The F2 generation was screened for rock2 and rock3 plants in wild-type background (called then rock2 and rock3 mutants).
(§2) At 18 days after germination digital pictures were taken of rosettes and the rosette diameter was measured using the Scion Image program (Scion Corporation, Frederick, Md., USA). Flowers at stage 14 were photographed and their size was also measured using the Scion Image program.
(§3) Fresh weights were measured by weighting either rosettes, shoots without rosettes, or whole aerial parts of the plants. The final plant height and the number of siliques were determined after termination of flowering. For analysis of seed yield, plants were put into paper bags after termination of flowering. After plants were kept dry for additional three weeks, total seed weight was determined.

Assay [2] shares this test system. In words: Natural leaf senescence of leaf 6 (Fv/Fm of PSII, chlorophyll content) under long-day conditions. Type of assay: in vivo. Here is the method:
as §1
The maximum efficiency of PSII photochemistry (Fv/Fm ratio) of dark adapted plants was measured with FluorCam (Photon Systems Instruments, Brno, Czech Republic). Chlorophyll contents of individual leaves were measured using the Chlorophyll Meter SPAD-502 (Konika Minolta, Bremen, Germany), taking the mean value of two measurements on the same leaf.

A further assay concerns 35S:CKX1 plants. Nature of the assay: Reversion of the cytokinin-deficiency phenotype in the 35S:CKX1 background. Type of assay: in vivo, Arabidopsis thaliana. Here is the method: Approximately 25000 35S:CKX1 seeds (Werner, T., Motyka, V., Laucou, V., Smets, R., Van Onckelen, H., and Schmülling, T. (2003). Cytokinin-deficient transgenic Arabidopsis plants show multiple developmental alterations indicating opposite functions of cytokinins in the regulation of shoot and root meristem activity. Plant Cell 15, 2532-2550) were soaked for 16 h in 100 ml 0.2% (v/v) ethyl methane sulfonate at room temperature. The M1 generation was grown as single plants and the M2 generation was screened for plants with wild-type-like phenotype.
Mapping populations for rock2 and rock3 were generated by crossing the rock2 35S:CKX1 and rock3 35S:CKX1 plants with wild type ecotype Landsberg erecta. The F2 progeny plants were used to map rock2 and rock3.
In order to compare the consequences of the rock3 mutation with those of the ore12 mutation the latter was introgressed into the 35S:CKX1 background (the rock3 was identified in this background). […] However, at different time points during development the degree of reversion is less strong than the reversion achieved with the rock3 allele. This difference is most evident for seedling size and rosette diameter. These two parameters are good indicators for a changed cytokinin status of the CKX1ox plants.

Assay [3] concerns Arabidopsis thaliana Columbia (Col-0). Nature of the assay: Shoot parameters of mutant plants and transgenic lines (height, siliques, stem thickness, flower size). Type of assay: in vivo. The following applies: compared to wild-type or ore12 plants; for size of flowers: flowers at stage 14. Here is the method: as §1
For the construction of the pAHK2:rock2 transgene a 2124 by promoter region of AHK2 was amplified by PCR from genomic DNA of A. thaliana Col-0 and cloned with Gateway™ technology into the pDONR™ P4-P1R entry vector (Invitrogen, Karlsruhe, Germany). After cloning the AHK2 coding sequence with Gateway™ technology into the pDONR™ 221 entry vector (Invitrogen) the rock2 point mutation was introduced by PCR based mutagenesis with the “QuickChange Site-Directed Mutagenesis”-Kit (Stratagene, La Jolla, USA) to obtain the rock2 Allele. Both fragments were combined with Multisite Gateway™ recombinational cloning in the pK7m24GW,3 vector (Karimi et al., 2005). To obtain the pAHK3:rock3 construct a 2062 bp promoter region of AHK3 was amplified by PCR from genomic DNA of A. thaliana Col-0 and the fragment was inserted into pDONR™P4-P1R entry vector (Invitrogen). The AHK3 cDNA containing the open reading frame of the gene was PCR-amplified from A. thaliana Col-0 and cloned into pDONR™222 entry vector (Invitrogen). To introduce the rock3 point mutation the “QuickChange Site-Directed Mutagenesis”-Kit (Stratagene, La Jolla, USA) was used to get the rock3 allele. The AHK3 promoter and the ROCK3 cDNA were combined with Multisite Gateway™ recombinational cloning in the pK7m24GW,3 vector (Karimi, M., De Meyer, B., and Nilson, P. (2005). Modular cloning in plant cells. Trends Plant Sci. 10, 103-105). Both constructs were introduced into Agrobacterium tumefaciens strain GV3101 and A. thaliana Col-0 plants were transformed using the floral-dip method (Clough, S. J., and Bent, A. F. (1998). Floral dip: a simplified method for Agrobacterium-mediated transformation of Arabidopsis thaliana. Plant J. 16, 735-743). Transgenic lines were selected using kanamycin and propagated into the T3 or T4 generation.
as §2, §3

B1: rock3: constitutively active gain-of-function variant of cytokinin receptor AHK3 of Arabidopsis thaliana, SEQ ID No. 2, encoded by SEQ ID No. 4 (protein, listed as Arabidopsis thaliana)
chain: MSLFHVLGFGVKIGHLFWMLCCWFVSWFVDNGIEDKSGLLVGSVGDLEKTKMTTLKKKNKMWFWNKISSSGLKIPSFSYQFLGSVKFNKAWWRKLVVVWVVFWVLVSIWTFWYFSSQAMEKRKETLASMCDERARMLQDQFNVSMNHVQAMSILISTFHHGKIPSAIDQRTFSEYTDRISFERPLTSGVAYAMRVLHSEREEFERQQGWTIRKMYSLEQNPVHKDDYDLEALEPSPVQEEYAPVIFAQDTVSHVVSLDMLSGKEDRENVLRARSSGKGVLTAPFPLIKTNRLGVILTFAVYKRDLPSNATPKERIEATNGYLGGVFDIESLVENLLQQLASKQTILVNVYDITNHSQPISMYGTNVSADGLERVSPLIFGDPLRKHEMRCRFKQKPPWPVLSMVTSFGILVIALLVAHIIHATVSRIHKVEEDCDKMKQLKKKAEAADVAKSQFLATVSHEIRTPMNGVLGMLHMLMDTELDVTQQDYVRTAQASGKALVSLINEVLDQAKIESGKLELEEVRFDLRGILDDVLSLFSSKSQQKGVELAVYISDRVPDMLIGDPGRFRQILTNLMGNSIKFTEKGHIFVTVHLVDELFESIDGETASSPESTLSGLPVADRQRSWENFKAFSSNGHRSFEPSPPDINLIVSVEDTGVGIPVEAQSRIFTPFMQVGPSISRTHGGTGIGLSISKCLVGLMKGEIGFSSTPKVGSTFTFTAVFSNGMQPAERKNDNNQPIFSEFRGMKAVVVDHRPARAKVSWYHFQRLGIRVEVVPRVEQALHYLKIGTTTVNMILIEQEIWNREADDFIKKLQKDPLFLSPKLILLANSVESSISEALCTGIDPPIVIVKPLRASMLAATLQRGLGIGIREPPQHKGPPALILRNLLLGRKILIVDDNNVNLRVAAGALKKYGADVVCAESGIKAISLLKPPHEFDACFMDIQMPEMDGFEATRRIRDMEEEMNKRIKNGEALIVENGNKTSWHLPVLAMTADVIQATHEECLKCGMDGYVSKPFEAEQLYREVSRFFNSPSDTES
On to B1, for which, in assay [1], the “vegetative growth of wild-type plants” value is “significantly enhance the vegetative growth”. Besides, the “longer life time of leaves compared to wild-type leaves” value in assay [2] (leaf 6, long-day conditions) is “about ten”. Moreover, the “reversion of the phenotypic consequences of CKX1 overexpression (cytokinin deficiency)” value in the assay on 35S:CKX1 plants is “suppress the phenotypic consequences of cytokinin deficiency”. Also, in assay [3], the stem thickness result is listed as “thicker stems” and the size of flowers result was “bigger flowers”.

B2: rock2: constitutively active gain-of-function variant of cytokinin receptor AHK2 of Arabidopsis thaliana, SEQ ID No. 1, encoded by SEQ ID No. 3 (protein, listed as Arabidopsis thaliana)
chain: MSITCELLNLTSKKAKKSSSSDKKWLKKPLFFLILCGSLVIVLVMFLRLGRSQKEETDSCNGEEKVLYRHQNVTRSEIHDLVSLFSDSDQVTSFECHKESSPGMWTNYGITCSLSVRSDKQETRGLPWNLGLGHSISSTSCMCGNLEPILQQPENLEEENHEEGLEQGLSSYLRNAWWCLILGVLVCHKIYVSHSKARGERKEKVHLQEALAPKKQQQRAQTSSRGAGRWRKNILLLGILGGVSFSVWWFWDTNEEIIMKRRETLANMCDERARVLQDQFNVSLNHVHALSILVSTFHHGKIPSAIDQRTFEEYTERTNFERPLTSGVAYALKVPHSEREKFEKEHGWAIKKMETEDQTVVQDCVPENFDPAPIQDEYAPVIFAQETVSHIVSVDMMSGEEDRENILRARASGKGVLTSPFKLLKSNHLGVVLTFAVYDTSLPPDATEEQRVEATIGYLGASYDMPSLVEKLLHQLASKQTIAVDVYDTTNTSGLIKMYGSEIGDISEQHISSLDFGDPSRNHEMHCRFKHKLPIPWTAITPSILVLVITFFVGYILYEAINRIATVEEDCQKMRELKARAEAADIAKSQFLATVSHEIRTPMNGVLGMLKMLMDTDLDAKQMDYAQTAHGSGKDLTSLINEVLDQAKIESGRLELENVPFDMRFILDNVSSLLSGKANEKGIELAVYVSSQVPDVVVGDPSRFRQIITNLVGNSIKFTQERGHIFISVHLADEVKEPLTIEDAVLKQRLALGCSESGETVSGFPAVNAWGSWKNFKTCYSTESQNSDQIKLLVTVEDTGVGIPVDAQGRIFTPFMQADSSTSRTYGGTGIGLSISKRLVELMQGEMGFVSEPGIGSTFSFTGVFGKAETNTSITKLERFDLAIQEFTGLRALVIDNRNIRAEVTRYELRRLGISADIVSSLRMACTCCISKLENLAMILIDKDAWNKEEFSVLDELFTRSKVTFTRVPKIFLLATSATLTERSEMKSTGLIDEVVIKPLRMSVLICCLQETLVNGKKRQPNRQRRNLGHLLREKQILVVDDNLVNRRVAEGALKKYGAIVTCVESGKAALAMLKPPHNFDACFMDLQMPEMDGFEATRRVRELEREINKKIASGEVSAEMFCKFSSWHVPILAMTADVIQATHEECMKCGMDGYVSKPFEEEVLYTAVARFFEPC
Regarding B2, in assay [1] (difference particularly evident at 32-40 DAG), the “increase in fresh weight of rosettes and whole plant over the complete life cycle” value was “effect is strongest”. Besides, the “vegetative growth of wild-type plants” value in assay [1] was “significantly enhance the vegetative growth”. Also, in assay [2] (leaf 6, compared to wild type and among mutants), the “onset of leaf senescence” value is listed as “earliest onset of leaf senescence”. In the assay with 35S:CKX1 plants, the “reversion of the phenotypic consequences of CKX1 overexpression (cytokinin deficiency)” value is recorded as “suppress the phenotypic consequences of cytokinin deficiency”. In addition, in assay [3], the “number of siliques on the main stem” value is “more siliques on the main stem”, the “shoot height (plant height)” value is on record as “increased”, the stem thickness result is given as “thicker stems” and the size of flowers result is “bigger flowers”.
